# Reference: article PMC2946844
# T1: 1xMBD-GFP (UniProt Q9Z2E2 1-75)
# T1 sequence: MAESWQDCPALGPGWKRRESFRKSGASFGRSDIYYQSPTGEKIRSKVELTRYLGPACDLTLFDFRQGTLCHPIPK
# B1: o_o_o/o_o_o (dsDNA)
# DNA 1: TTTGCGGTCCGCTGCCCGACCC
# DNA 2: GGGTCGGGCAGCGGACCGCAAA
# B2: o_o_o/m_o_m (dsDNA)
# DNA 1: TTTGCGGTCCGCTGCCCGACCC
# DNA 2: GGGTCGGGCAGCGGACCGCAAA
# modifications: strand 2 5mC5,5mC17
# B3: o_o_m/m_o_m (dsDNA)
# DNA 1: TTTGCGGTCCGCTGCCCGACCC
# DNA 2: GGGTCGGGCAGCGGACCGCAAA
# modifications: strand 1 5mC17; strand 2 5mC5,5mC17
# B4: m_o_o/m_m_m (dsDNA)
# DNA 1: TTTGCGGTCCGCTGCCCGACCC
# DNA 2: GGGTCGGGCAGCGGACCGCAAA
# modifications: strand 1 5mC5; strand 2 5mC5,5mC12,5mC17
# B5: o_o_m/o_m_o (dsDNA)
# DNA 1: TTTGCGGTCCGCTGCCCGACCC
# DNA 2: GGGTCGGGCAGCGGACCGCAAA
# modifications: strand 1 5mC17; strand 2 5mC12
# B6: o_o_m/o_m_m (dsDNA)
# DNA 1: TTTGCGGTCCGCTGCCCGACCC
# DNA 2: GGGTCGGGCAGCGGACCGCAAA
# modifications: strand 1 5mC17; strand 2 5mC5,5mC12
# B7: m_o_o/m_o_m (dsDNA)
# DNA 1: TTTGCGGTCCGCTGCCCGACCC
# DNA 2: GGGTCGGGCAGCGGACCGCAAA
# modifications: strand 1 5mC5; strand 2 5mC5,5mC17
# B8: o_m_o/o_o_o (dsDNA)
# DNA 1: TTTGCGGTCCGCTGCCCGACCC
# DNA 2: GGGTCGGGCAGCGGACCGCAAA
# modifications: strand 1 5mC10
# B9: o_m_o/o_m_o (dsDNA)
# DNA 1: TTTGCGGTCCGCTGCCCGACCC
# DNA 2: GGGTCGGGCAGCGGACCGCAAA
# modifications: strand 1 5mC10; strand 2 5mC12
# B10: m_o_o*/o_m_o (dsDNA)
# DNA 1: GTAGTTTGCGGTCCGCTGCCCGACC
# DNA 2: GGGTCGGGCAGCGGACCGCAAA
# modifications: strand 1 5mC9; strand 2 5mC12
# B11: o_o_m/m_o_o (dsDNA)
# DNA 1: TTTGCGGTCCGCTGCCCGACCC
# DNA 2: GGGTCGGGCAGCGGACCGCAAA
# modifications: strand 1 5mC17; strand 2 5mC17
# B12: o_o_m/o_o_o (dsDNA)
# DNA 1: TTTGCGGTCCGCTGCCCGACCC
# DNA 2: GGGTCGGGCAGCGGACCGCAAA
# modifications: strand 1 5mC17
# B13: o_m_m/m_o_m (dsDNA)
# DNA 1: TTTGCGGTCCGCTGCCCGACCC
# DNA 2: GGGTCGGGCAGCGGACCGCAAA
# modifications: strand 1 5mC10,5mC17; strand 2 5mC5,5mC17
# B14: o_m_m/o_o_o (dsDNA)
# DNA 1: TTTGCGGTCCGCTGCCCGACCC
# DNA 2: GGGTCGGGCAGCGGACCGCAAA
# modifications: strand 1 5mC10,5mC17
# B15: o_m_m/o_m_m (dsDNA)
# DNA 1: TTTGCGGTCCGCTGCCCGACCC
# DNA 2: GGGTCGGGCAGCGGACCGCAAA
# modifications: strand 1 5mC10,5mC17; strand 2 5mC5,5mC12
# B16: o_m_m/o_m_o (dsDNA)
# DNA 1: TTTGCGGTCCGCTGCCCGACCC
# DNA 2: GGGTCGGGCAGCGGACCGCAAA
# modifications: strand 1 5mC10,5mC17; strand 2 5mC12
# B17: m_o_o*/m_m_m (dsDNA)
# DNA 1: GTAGTTTGCGGTCCGCTGCCCGACC
# DNA 2: GGGTCGGGCAGCGGACCGCAAA
# modifications: strand 1 5mC9; strand 2 5mC5,5mC12,5mC17
# B18: o_m_m/m_o_o (dsDNA)
# DNA 1: TTTGCGGTCCGCTGCCCGACCC
# DNA 2: GGGTCGGGCAGCGGACCGCAAA
# modifications: strand 1 5mC10,5mC17; strand 2 5mC17
# B19: o_m_o/m_m_m (dsDNA)
# DNA 1: TTTGCGGTCCGCTGCCCGACCC
# DNA 2: GGGTCGGGCAGCGGACCGCAAA
# modifications: strand 1 5mC10; strand 2 5mC5,5mC12,5mC17
# B20: m_o_o*/m_o_m (dsDNA)
# DNA 1: GTAGTTTGCGGTCCGCTGCCCGACC
# DNA 2: GGGTCGGGCAGCGGACCGCAAA
# modifications: strand 1 5mC9; strand 2 5mC5,5mC17
# B21: o_m_m/m_m_m (dsDNA)
# DNA 1: TTTGCGGTCCGCTGCCCGACCC
# DNA 2: GGGTCGGGCAGCGGACCGCAAA
# modifications: strand 1 5mC10,5mC17; strand 2 5mC5,5mC12,5mC17
# B22: o_m_o/o_m_m (dsDNA)
# DNA 1: TTTGCGGTCCGCTGCCCGACCC
# DNA 2: GGGTCGGGCAGCGGACCGCAAA
# modifications: strand 1 5mC10; strand 2 5mC5,5mC12
# B23: o_o_o/o_m_o (dsDNA)
# DNA 1: TTTGCGGTCCGCTGCCCGACCC
# DNA 2: GGGTCGGGCAGCGGACCGCAAA
# modifications: strand 2 5mC12
# B24: m_o_o/o_m_m (dsDNA)
# DNA 1: TTTGCGGTCCGCTGCCCGACCC
# DNA 2: GGGTCGGGCAGCGGACCGCAAA
# modifications: strand 1 5mC5; strand 2 5mC5,5mC12
# B25: m_o_o*/o_m_m (dsDNA)
# DNA 1: GTAGTTTGCGGTCCGCTGCCCGACC
# DNA 2: GGGTCGGGCAGCGGACCGCAAA
# modifications: strand 1 5mC9; strand 2 5mC5,5mC12
# B26: m_o_o/o_o_o (dsDNA)
# DNA 1: TTTGCGGTCCGCTGCCCGACCC
# DNA 2: GGGTCGGGCAGCGGACCGCAAA
# modifications: strand 1 5mC5
# B27: m_o_o/o_m_o (dsDNA)
# DNA 1: TTTGCGGTCCGCTGCCCGACCC
# DNA 2: GGGTCGGGCAGCGGACCGCAAA
# modifications: strand 1 5mC5; strand 2 5mC12
# B28: o_o_o/m_m_m (dsDNA)
# DNA 1: TTTGCGGTCCGCTGCCCGACCC
# DNA 2: GGGTCGGGCAGCGGACCGCAAA
# modifications: strand 2 5mC5,5mC12,5mC17
# B29: m_o_o*/o_o_o (dsDNA)
# DNA 1: GTAGTTTGCGGTCCGCTGCCCGACC
# DNA 2: GGGTCGGGCAGCGGACCGCAAA
# modifications: strand 1 5mC9
# B30: o_o_o_o/o_o_o_o (dsDNA)
# DNA 1: GAAGTCAACAGGACGGACGCCGCGCAA
# DNA 2: CTCTTTCTTTGCGCGGCGTCCGTCCTGTTGACTTCCTCT
# B31: o_o_o_m/o_m_m_o (dsDNA)
# DNA 1: GAAGTCAACAGGACGGACGCCGCGCAA
# DNA 2: B30 DNA 2
# modifications: strand 1 5mC23; strand 2 5mC14,5mC17
# B32: o_o_m_o/o_o_m_o (dsDNA)
# DNA 1: GAAGTCAACAGGACGGACGCCGCGCAA
# DNA 2: B30 DNA 2
# modifications: strand 1 5mC21; strand 2 5mC14
# B33: o_o_o_m/o_o_o_o (dsDNA)
# DNA 1: GAAGTCAACAGGACGGACGCCGCGCAA
# DNA 2: B30 DNA 2
# modifications: strand 1 5mC23
# B34: m_o_o_o/o_o_m_m (dsDNA)
# DNA 1: GAAGTCAACAGGACGGACGCCGCGCAA
# DNA 2: B30 DNA 2
# modifications: strand 1 5mC14; strand 2 5mC12,5mC14
# B35: o_m_o_o/o_o_m_m (dsDNA)
# DNA 1: GAAGTCAACAGGACGGACGCCGCGCAA
# DNA 2: B30 DNA 2
# modifications: strand 1 5mC18; strand 2 5mC12,5mC14
# B36: m_o_o_o/o_m_m_o (dsDNA)
# DNA 1: GAAGTCAACAGGACGGACGCCGCGCAA
# DNA 2: B30 DNA 2
# modifications: strand 1 5mC14; strand 2 5mC14,5mC17
# B37: o_o_o_o/o_m_m_o (dsDNA)
# DNA 1: GAAGTCAACAGGACGGACGCCGCGCAA
# DNA 2: B30 DNA 2
# modifications: strand 2 5mC14,5mC17
# B38: o_m_o_o/o_o_o_o (dsDNA)
# DNA 1: GAAGTCAACAGGACGGACGCCGCGCAA
# DNA 2: B30 DNA 2
# modifications: strand 1 5mC18
# B39: m_o_o_o/o_o_m_o (dsDNA)
# DNA 1: GAAGTCAACAGGACGGACGCCGCGCAA
# DNA 2: B30 DNA 2
# modifications: strand 1 5mC14; strand 2 5mC14
# B40: o_o_o_m/o_o_m_o (dsDNA)
# DNA 1: GAAGTCAACAGGACGGACGCCGCGCAA
# DNA 2: B30 DNA 2
# modifications: strand 1 5mC23; strand 2 5mC14
# B41: o_o_o_o/o_o_m_o (dsDNA)
# DNA 1: GAAGTCAACAGGACGGACGCCGCGCAA
# DNA 2: B30 DNA 2
# modifications: strand 2 5mC14
# B42: m_o_o_o/o_o_o_o (dsDNA)
# DNA 1: GAAGTCAACAGGACGGACGCCGCGCAA
# DNA 2: B30 DNA 2
# modifications: strand 1 5mC14
# B43: o_o_m_o/o_m_m_o (dsDNA)
# DNA 1: GAAGTCAACAGGACGGACGCCGCGCAA
# DNA 2: B30 DNA 2
# modifications: strand 1 5mC21; strand 2 5mC14,5mC17
# B44: o_o_o_o/o_o_m_m (dsDNA)
# DNA 1: GAAGTCAACAGGACGGACGCCGCGCAA
# DNA 2: B30 DNA 2
# modifications: strand 2 5mC12,5mC14
# B45: o_m_o_o/o_m_m_o (dsDNA)
# DNA 1: GAAGTCAACAGGACGGACGCCGCGCAA
# DNA 2: B30 DNA 2
# modifications: strand 1 5mC18; strand 2 5mC14,5mC17
# B46: o_m_o_o/o_o_m_o (dsDNA)
# DNA 1: GAAGTCAACAGGACGGACGCCGCGCAA
# DNA 2: B30 DNA 2
# modifications: strand 1 5mC18; strand 2 5mC14
# B47: o_o_m_o/o_o_o_o (dsDNA)
# DNA 1: GAAGTCAACAGGACGGACGCCGCGCAA
# DNA 2: B30 DNA 2
# modifications: strand 1 5mC21
# B48: o_m_o/m_o_m (dsDNA)
# DNA 1: TTTGCGGTCCGCTGCCCGACCC
# DNA 2: GGGTCGGGCAGCGGACCGCAAA
# modifications: strand 1 5mC10; strand 2 5mC5,5mC17
# B49: o_o_o/o_m_m (dsDNA)
# DNA 1: TTTGCGGTCCGCTGCCCGACCC
# DNA 2: GGGTCGGGCAGCGGACCGCAAA
# modifications: strand 2 5mC5,5mC12
# Molecular target: T1, 1xMBD-GFP
# Assay: SPR
row,Binder,Kd [µM]
1,B1,72 ± 5
2,B2,5.7 ± 0.3
3,B3,0.179 ± 0.001
4,B4,2.2 ± 0.02
5,B5,2.3 ± 0.06
6,B6,0.116 ± 0.001
7,B7,2.08 ± 0.02
8,B8,10 ± 0.1
9,B9,0.244 ± 0.002
10,B10,5.41 ± 0.05
11,B11,5.97 ± 0.08
12,B12,6.8 ± 0.1
13,B13,0.169 ± 0.002
14,B14,3.09 ± 0.02
15,B15,0.139 ± 0.007
16,B16,0.271 ± 0.005
17,B17,0.534 ± 0.004
18,B18,3.47 ± 0.05
19,B19,0.398 ± 0.002
20,B20,0.564 ± 0.004
21,B21,0.181 ± 0.001
22,B22,0.252 ± 0.002
23,B23,12 ± 1
24,B24,3.67 ± 0.03
25,B25,3.74 ± 0.06

row,Binder,Kd [µM]
1,B26,35 ± 1
2,B27,5.5 ± 0.9
3,B28,4.6 ± 0.2
4,B29,13.1 ± 0.3
5,B30,37 ± 2
6,B31,1.94 ± 0.02
7,B32,0.106 ± 0.001
8,B33,7.6 ± 0.2
9,B34,3.11 ± 0.03
10,B35,2.4 ± 0.04
11,B36,2.4 ± 0.09
12,B37,3.19 ± 0.03
13,B38,14.7 ± 0.4
14,B39,3.51 ± 0.03
15,B40,2.65 ± 0.03
16,B41,3.66 ± 0.05
17,B42,16.8 ± 0.5
18,B43,0.158 ± 0.003
19,B44,4.5 ± 0.1
20,B45,0.315 ± 0.004
21,B46,3.12 ± 0.04
22,B47,5.86 ± 0.09
23,B48,8.6 ± 0.1
24,B49,4.28 ± 0.05
